From patent publication US20060024793A1 come the findings set out here.

The target of this assay is thrombin (manufactured by Enzyme Research Laboratories). The assay is described as follows: cell-based or functional assay.
For “ATIII MS705 peak (3) fraction (recombinant human antithrombin III produced by pKAN-ATIII AFMS705, FUT8 gene-double-knockout CHO/DG44 cell) (from UniProt P01008 33-464)”, the Secondary rate constant (+hep), thrombin inhibition in the presence of heparin stood at 2.6e+07 M⁻¹ s⁻¹ and the Secondary rate constant (-hep), thrombin inhibition in the absence of heparin came out at 8800 M⁻¹ s⁻¹.
With “ATIII MS705 peak (2) fraction (recombinant human antithrombin III produced by pKAN-ATIII AFMS705, FUT8 gene-double-knockout CHO/DG44 cell) (from UniProt P01008 33-464)”, the Secondary rate constant (+hep), thrombin inhibition in the presence of heparin was found to be 2.5e+07 M⁻¹ s⁻¹.
Regarding “ATIII DG44 peak (2) fraction (recombinant human antithrombin III produced by pKAN-ATIII AFDG44, CHO/DG44 cell) (from UniProt P01008 33-464)”, the Secondary rate constant (+hep), thrombin inhibition in the presence of heparin came to 2e+07 M⁻¹ s⁻¹ and the Secondary rate constant (-hep), thrombin inhibition in the absence of heparin was found to be 8600 M⁻¹ s⁻¹.
The like results for “Neuart (human plasma-derived antithrombin III preparation, manufactured by Mitsubishi Pharma Corporation) (from UniProt P01008 33-464)” were, in that order, 2.3e+07 M⁻¹ s⁻¹ and 8200 M⁻¹ s⁻¹.
The like results for “ATIII DG44 peak (1) fraction (recombinant human antithrombin III produced by pKAN-ATIII AFDG44, CHO/DG44 cell) (from UniProt P01008 33-464)” were, in that order, 8.7e+06 M⁻¹ s⁻¹ and 7700 M⁻¹ s⁻¹.
